According to patent US20250388673A1 (HIFIBIO, published 2025):
Residue numbers refer to the chain shown, from its start. Each block holds one binder with its values, some of them ahead of it.

Target: T1, human BTLA (human, UniProt Q7Z6A9 31-289)
T1 construct: also called hBTLA; HEK293.hBTLA
T1 sequence: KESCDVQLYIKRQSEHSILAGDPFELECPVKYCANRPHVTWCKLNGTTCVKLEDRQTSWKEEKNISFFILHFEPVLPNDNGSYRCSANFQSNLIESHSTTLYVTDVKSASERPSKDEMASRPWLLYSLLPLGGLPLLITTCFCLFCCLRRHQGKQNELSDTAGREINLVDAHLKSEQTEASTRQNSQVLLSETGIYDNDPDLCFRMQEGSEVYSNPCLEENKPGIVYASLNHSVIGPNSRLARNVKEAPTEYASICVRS
Assay: flow cytometry, HEK293 cells overexpressing human BTLA
Procedure: HEK293 cells overexpressing human BTLA and Expi293 cells overexpressing cynomolus BTLA were incubated with different concentrations of humanized anti-BTLA antibodies. Anti-BTLA antibody binding to target cells were quantified with an AF647-conjugated anti-human IgG Fc secondary antibody by flow cytometry.

binding result: binds
B6: HFB6-4hz16-hG1 (antibody, human IgG1, V domains shown)
VH: EVQLVESGGGLVQPGGSLKLSCATSGFNIKDTYIHWVRQASGKGLEWIGRNDPANGNTKYAASFKGRATISADDSKNTAYLQLNSLKTEDTAVYYCASYEGYYERFGYWGQGTLVTVSS
VL: EIVLTQSPGTLSLSPGERATLSCRSSQSLLDRDGKTYLNWLQQKPGQAPRRLIYLVSKLDSGIPDRFSGSGSGTDFTLTISRLEPEDFAVYYCWQDTHFPYTFGQGTKLEIK
notes: Humanized variant of HFB6-4, human IgG1 (hG1)

binding result: binds
B7: HFB6-4hz14-hG1 (antibody, human IgG1, V domains shown)
VH: QVQLVQSGAEVKKPGASVKVSCKTSGFNIKDTYIHWVRQAPGQGLEWIGRNDPANGNTKYAQKFQGRVTMTADTSTSTVYMELSSLRSEDTAVYYCASYEGYYERFGYWGQGTLVTVSS
VL: B6 VL
notes: as for B6

binding result: binds
B8: HFB6-4hz11-hG1 (antibody, human IgG1, V domains shown)
VH: QVQLQESGPGLVKPSGTLSLTCAVSGFNIKDTYIHWVRQPPGKGLEWIGRNDPANGNTKYNPSFKSRATISADKSKNQASLKLSSVTAADTAVYYCASYEGYYERFGYWGQGTLVTVSS
VL: DVVMTQSPLSLPVTLGQPASISCRSSQSLLDRDGKTYLNWLQQRPGQSPRRLIYLVSKRDSGVPDRFSGSGSGTDFTLKISRVEAEDVGVYYCWQDTHFPYTFGQGTKLEIK
notes: as for B6

binding result: binds
B9: HFB6-4hz17-hG1 (antibody, human IgG1, V domains shown)
VH: B8 VH
VL: B6 VL
notes: as for B6

binding result: binds
B10: HFB6-4hz12-hG1 (antibody, human IgG1, V domains shown)
VH: EVQLVQSGAEVKKPGESLKISCKTSGFNIKDTYIHWVRQMPGKGLEWIGRNDPANGNTKYSPSFQGQVTISADKSISTAYLQLSSLKASDTAMYYCASYEGYYERFGYWGQGTLVTVSS
VL: B8 VL
notes: as for B6

The next lines start with the binder.

B1: HFB6-4hz13-hG1 (antibody, human IgG1, V domains shown)
VH: B7 VH with A16S, V68A, M70I, T74E, V79A
VL: B6 VL
notes: as for B6
binding result: binds

B2: HFB6-4hz19-hG1 (antibody, human IgG1, V domains shown)
VH: B7 VH with A16S, V68A, M70I, T74E, V79A
VL: DIVMTQSPDSLAVSLGERATINCKSSQSLLDRDGKTYLNWLQQKPGQSPKRLIYLVSKLDSGVPDRFSGSGSGTDFTLTISSLQAEDLAVYYCWQDTHFPYTFGQGTKLEIK
notes: as for B6
binding result: binds

B3: HFB6-4hz18-hG1 (antibody, human IgG1, V domains shown)
VH: B10 VH
VL: B6 VL
notes: as for B6
binding result: binds

B4: HFB6-4hz15-hG1 (antibody, human IgG1, V domains shown)
VH: EVQLVESGGGLVQPGRSLRLSCTTSGFNIKDTYIHWFRQAPGKGLEWVGRNDPANGNTKYTASFKGRATISADGSKSIAYLQMNSLKTEDTAVYYCASYEGYYERFGYWGQGTLVTVSS
VL: B6 VL
notes: as for B6
binding result: binds

B5: HFB6-4hz20-hG1 (antibody, human IgG1, V domains shown)
VH: B7 VH
VL: B2 VL
notes: as for B6
binding result: binds
